Assay results published in IntAct's records for PubMed 21685921.

B1: Regulator of G-protein signaling 4 (Homo sapiens), P49798 (parent)
chain: MCKGLAGLPASCLRSAKDMKHRLGFLLQKSDSCEHNSSHNKKDKVVICQRVSQEEVKKWAESLENLISHECGLAAFKAFLKSEYSEENIDFWISCEEYKKIKSPSKLSPKAKKIYNEFISVQATKEVNLDSCTREETSRNMLEPTITCFDEAQKKIFNLMEKDSYRRFLKSRFYLDLVNPSSCGAEKQKGAKSSADCASLVPQCA
B2: Regulator of G-protein signaling 16 (Homo sapiens), O15492 (parent)
chain: MCRTLAAFPTTCLERAKEFKTRLGIFLHKSELGCDTGSTGKFEWGSKHSKENRNFSEDVLGWRESFDLLLSSKNGVAAFHAFLKTEFSEENLEFWLACEEFKKIRSATKLASRAHQIFEEFICSEAPKEVNIDHETHELTRMNLQTATATCFDAAQGKTRTLMEKDSYPRFLKSPAYRDLAAQASAASATLSSCSLDEPSHT
B3: Regulator of G-protein signaling 17 (Homo sapiens), Q9UGC6 (parent)
chain: MRKRQQSQNEGTPAVSQAPGNQRPNNTCCFCWCCCCSCSCLTVRNEERGENAGRPTHTTKMESIQVLEECQNPTAEEVLSWSQNFDKMMKAPAGRNLFREFLRTEYSEENLLFWLACEDLKKEQNKKVIEEKARMIYEDYISILSPKEVSLDSRVREVINRNLLDPNPHMYEDAQLQIYTLMHRDSFPRFLNSQIYKSFVESTAGSSSES
B4: Regulator of G-protein signaling 18 (Homo sapiens), Q9NS28 (parent)
chain: METTLLFFSQINMCESKEKTFFKLIHGSGKEETSKEAKIRAKEKRNRLSLLVQKPEFHEDTRSSRSGHLAKETRVSPEEAVKWGESFDKLLSHRDGLEAFTRFLKTEFSEENIEFWIACEDFKKSKGPQQIHLKAKAIYEKFIQTDAPKEVNLDFHTKEVITNSITQPTLHSFDAAQSRVYQLMEQDSYTRFLKSDIYLDLMEGRPQRPTNLRRRSRSFTCNEFQDVQSDVAIWL

Variants of: B1
Conditions: with gnao_rat Gnao1, P59215
Chain of gnao_rat Gnao1, P59215 (P59215 whole entry): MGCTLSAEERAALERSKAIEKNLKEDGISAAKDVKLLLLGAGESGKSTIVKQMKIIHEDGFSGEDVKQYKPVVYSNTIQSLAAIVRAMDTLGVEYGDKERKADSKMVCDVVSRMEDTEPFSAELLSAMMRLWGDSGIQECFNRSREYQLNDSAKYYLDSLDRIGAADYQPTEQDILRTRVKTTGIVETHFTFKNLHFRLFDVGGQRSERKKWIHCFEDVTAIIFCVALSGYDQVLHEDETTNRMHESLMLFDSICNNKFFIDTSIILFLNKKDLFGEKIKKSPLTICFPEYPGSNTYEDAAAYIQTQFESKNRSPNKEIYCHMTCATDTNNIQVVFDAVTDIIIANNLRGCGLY

effect of a mutation on the interaction | Variant
decreasing interaction | R134A;R166A
decreasing interaction | R134A

Second part, the variant before the results:

Variant | effect of a mutation on the interaction
E126A;R134A;R166A | disrupting interaction
N128S | disrupting interaction

Variants of: B2
Conditions: with gnao_rat Gnao1, P59215

Variant | effect of a mutation on the interaction
E125A;E129A | decreasing interaction
E90A | decreasing interaction
E129A | decreasing interaction
E125A;E129A;K173A | decreasing interaction

Variants of: B3
Conditions: with gnao_rat Gnao1, P59215

Variant | effect of a mutation on the interaction
I143S;L144E;S145A;S150N;N192K | increasing interaction
I143S;L144E;S145A;S150N;H183E;R184K;N192K | increasing interaction

Variants of: B4
Conditions: with gnao_rat Gnao1, P59215

Variant | effect of a mutation on the interaction
K141E;H156E;K158R;Q186K | increasing interaction
Q186K | increasing interaction
H156E;K158R | increasing interaction
K141E;H156E;K158R | increasing interaction
